Data from patent publication US7582478B2, “Cleaved serum response factor in cardiac diagnosis and therapy” (Baylor College of Medicine, priority 2003, dated 2009).
Entries after “also recorded” stand apart in the source; their conditions may differ. Where a SMILES comes first, the peptide text is derived from it. The star is where a group is joined. Cbz = O=C(OCc1ccccc1)*; CH2F = FC*

Assays:
[1] = target: T1, active recombinant human caspase 3 (Homo sapiens, UniProt P42574); assay: In vitro cleavage of recombinant SRF by active caspase 3, Western blot; type: biochemical; conditions: 20 μM Z-VAD-fmk, recombinant full length SRF
T1 construct: incubated with active recombinant human caspase 3; purchased BD PharMingen
T1 sequence (P42574 29-175 limits assumed): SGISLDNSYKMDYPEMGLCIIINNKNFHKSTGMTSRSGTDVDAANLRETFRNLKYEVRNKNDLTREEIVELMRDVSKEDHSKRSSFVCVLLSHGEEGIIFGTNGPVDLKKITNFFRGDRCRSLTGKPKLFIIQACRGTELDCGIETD
T1 sequence (P42574 176-277 limits assumed): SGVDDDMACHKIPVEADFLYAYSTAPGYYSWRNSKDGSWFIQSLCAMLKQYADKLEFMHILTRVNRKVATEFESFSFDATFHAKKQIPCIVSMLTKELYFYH
Experimental: Recombinant purified full length SRF was incubated with active recombinant human caspase 3 (BD PharMingen) in the presence or absence of 20 μM of Z-VAD-fmk (BD PharMingen), a caspase 3 inhibitor, in a reaction buffer (50 mM HEPES (pH 7.4), 100 mM NaCl, 1 mM EDTA, 0.1% CHAPS, 10 mM DTT and 10% glycerol). Reactions were analyzed by Western blot as described above.
To examine caspase 3 cleavage of SRF, we incubated activated caspase 3 with recombinant SRF in vitro. […] Caspase 3 cleaved SRF in a time-dependent manner, and this cleavage was inhibited by the caspase inhibitor, Z-VAD. […] In this case, the 55 kDa fragment tended to fall as a function of caspase 3 doses while there was a coincident increase into a 32 kDa fragment.

cardiac α-actin promoter = assay: Cardiac α-actin promoter luciferase reporter (αCA-luc) co-transfection; type: cell-based, rat; conditions: for effect on cardiac α-actin promoter activity (in words): neonatal rat cardiomyocytes
Description: (§1) The construction and use of reporter plasmids containing the skeletal (SK-luc) and cardiac α-actin (aCA-luc) promoters linked to luciferase reporters were as previously described (MacLellan et al., 1994; Wei et al., 1998). The vector pCGN, a cytomegalovirus promoter-driven expression vector, was used to express full length SRF (residues 1-508) (pCGN-SRF), N-terminal SRF (residues 1-254) (pCGN-SRF-N), C-terminal SRF (residues 255-508) (pCGN-SRF-C) and SRFpm1 (pCGN-SRFpm1) containing triple point mutants within the MADS box (Prywes and Zhu, 1992).
(§2) C2C12 myoblasts and neonatal rat cardiomyocytes were cultured as previously described (MacLellan et al., 1994; Wei et al., 1998). Cells plated in 30-mm plates were transfected with […] of total plasmid DNA containing the reporter plasmid (SK-luc or aCA-luc) and the indicated expression plasmids. Transfections were performed using LipofectAMINE (Invitrogen) according to the manufacturer's instructions. Cells were harvested 40 h post-transfection and luciferase activity was measured as previously described (MacLellan et al., 1994).
(§3) To evaluate potential functional significance of the cleaved fragments, we overexpressed the SRF-N and SRF-C fragments via CMV promoter-driven expression plasmids co-transfected with cardiac α-actin and skeletal α-actin promoter reporter plasmids in cultured rat neonatal cardiomyocytes and C2C12 myoblasts. […] This inhibitory effect was very similar to that observed by a SRF negative mutant SRFpml (Wei et al., 1998; Prywes and Zhu, 1992; Johansen and Prywes, 1993).

[2] = tested on: skeletal α-actin promoter; assay: Skeletal α-actin promoter luciferase reporter (SK-luc) co-transfection in C2C12 myoblasts; type: cell-based
Description: as §1, §2, §3

[3] = tested on: skeletal α-actin SRE1 DNA probe; assay: Electrophoretic gel mobility shift assay (EMSA); type: binding; conditions: recombinant protein
Experimental: DNA binding activity of SRF-N was assayed by EMSA with recombinant SRF-N and full length SRF and with the oligonucleotide probe corresponding to the proximal SRE1 of the skeletal a-actin promoter as previously described (MacLellan et al., 1994; Wei et al., 1998). Recombinant SRF and SRF-N were generated using pET-15b (Novagen) vector, which contains 6′histidine tag. These recombinant SRFs were expressed in BL21 (Stratagene) competent cells followed by Ni-NTA (nickel-nitrilotriacetic acid) resin purification.

neonatal cardiomyocytes = assay: Immunofluorescence analysis of cellular localization in transfected cardiomyocytes; type: cell-based, rat; conditions: transfected cardiac myocytes, anti-HA antibody
Description: Visualization of transfected SRF and SRF-N cellular localization was implemented in neonatal cardiomyocytes attached to coverslips as described previously (Wei et al., 2001). Anti-HA antibody was used at 1:200.

Molecule: COC(=O)C[C@H](NC(=O)[C@H](C)NC(=O)[C@@H](NC(=O)OCc1ccccc1)C(C)C)C(=O)CF [Z-VAD, Z-VAD-fmk] (Cbz-Val-Ala-Asp(OMe)-CH2F)
- cleavage of SRF by caspase 3 [1]: blocked; also recorded: inhibited

B1: SRF-C: C-terminal SRF (residues 255-508), 32 kDa fragment (protein)
chain: SSGETKDTLKPAFTVTNLPGTTSTIQTAPSTSTTMQVSSGPSFPITNYLAPVSASVSPSAVSSANGTVLKSTGSGPVSSGGLMQLPTSFTLMPGGAVAQQVPVQAIQVHQAPQQASPSRDSSTDLTQTSSSGTVTLPATIMTSSVPTTVGGHMMYPSPHAVMYAPTSGLGDGSLTVLNAFSQAPSTMQVSHSQVQEPGGVPQVFLTASSGTVQIPVSAVQLHQMAVIGQQAGSSSNLTELQVVNLDTAHSTKSE
- effect on cardiac α-actin promoter activity (in words) (cardiac α-actin promoter): did not inhibit
- effect on skeletal α-actin promoter activity (in words) [2]: did not inhibit

B2: SRF-N: N-terminal SRF (residues 1-254), 32 kDa caspase 3 cleavage fragment (protein)
chain: MLPTQAGAAAALGRGSALGGSLNRTPTGRPGGGGGTRGANGGRVPGNGAGLGPGRLEREAAAAAATTPAPTAGALYSGSEGDSESGEEEELGAERRGLKRSLSEMEIGMVVGGPEASAAATGGYGPVSGAVSGAKPGKKTRGRVKIKMEFIDNKLRRYTTFSKRKTGIMKKAYELSTLTGTQVLLLVASETGHVYTFATRKLQPMITSETGKALIQTCLNSPDSPPRSDPTTDQRMSATGFEETDLTYQVSESD
- decrease of basal transcriptional activity of the cardiac α-actin promoter (cardiac α-actin promoter; cultured rat neonatal cardiomyocytes, CMV promoter-driven expression plasmid, 40 h post-transfection): 60%
- effect on cardiac α-actin promoter activity (in words) (cardiac α-actin promoter): repressed
- inhibition of the transcriptional activity of α-actin gene promoters (cardiac α-actin promoter; summary for myogenic cells (cardiomyocytes and C2C12 myoblasts together)): 50-60%
- effect on skeletal α-actin promoter activity (in words) [2]: repressed
- decrease of basal transcriptional activity of the skeletal α-actin promoter ([2]; CMV promoter-driven expression plasmid, 40 h post-transfection): 50%
- binding to skeletal α-actin SRE1 DNA probe [3]: retains DNA binding activity; also recorded: bound
- nuclear localization (neonatal cardiomyocytes): localize to myogenic nuclei
